# Test results: US10736933B2, “Peptide-induced NK cell activation” (priority 2015, dated 2020)
# Legend:
# HLA-Cw*0102 = HLA-Cw*0102 (Homo sapiens, UniProt P10321, A176E/A330V/A35S/A97T/C350S/D114A/D33F/L171W/L180R/L218V/M285V/M309V/M331V/P208H/Q277E/Q291P/R121W/R243W/R30K/S123C/S140Y/S297R/T329A/T363A/V272M/V319A); test: Peptide binding to HLA-Cw*0102 on L721.174 cells (cell surface MHC class I, flow cytometry); format: cell-based; details: increasing concentrations of peptide, overnight at 26° C.
# Description: (§1) The HLA-Cw*0102-positive cell line L721.174 was incubated with increasing concentrations of the LNPSVAATL (SEQ ID NO: 5) peptide or a control peptide VAPWNSLSL (SEQ ID NO: 11). Cells were stained for cell surface of MHC class I and analysed by flow cytometry. The mean fluorescence intensity of cell surface MHC Class I was plotted against the peptide concentration.
# as §1, with “HLA-Cw*0102 • positive” for “HLA-Cw*0102-positive”, “peptides IVDLMCHATF” for “LNPSVAATL”, “1); VIDAMCHATL (SEQ ID NO: 2); AANVMAASL (SEQ ID NO: 3); and FLSDVPVATL (SEQ ID NO: 4)” for “5) peptide”, “[…].” for “VAPWNSLSL (SEQ ID NO: 11).”
# 3×10^5 cells were used per condition. Following washing in PBS the cells were stained for cell surface of MHC class I and analysed by flow cytometry. The mean fluorescence intensity of cell surface MHC Class I was plotted against the peptide concentration.
# With reference to FIG. 12, the HLA-Cw*0102-positive cell line L721.174 was incubated with increasing concentrations of the peptides IVDLMCHATF (SEQ ID NO: 1), VIDAMCHATL (SEQ ID NO: 2), AANVMAASL (SEQ ID NO: 3); and FLSDVPVATL (SEQ ID NO: 4) overnight at 26° C. 3×10^5 cells were used per condition. Following washing in PBS the cells were stained for cell surface of MHC class I and analysed by flow cytometry. The mean fluorescence intensity of cell surface MHC Class I was plotted against the peptide concentration.
# [1] = system: NKL cell line transfected with KIR2DS2; test: Vav1 phosphorylation (pVav1 Western blot) in NKL cells transfected with KIR2DS2; format: cell-based; details: L721.174 (HLA-Cw*0102) cells loaded with peptide; KIR2DS2-transfected NKL, 5 minutes
# Description: A. L721.174 cells were incubated with indicated peptides. The cells were then incubated with the NK cell line transfected with KIR2DS2. The cells were lysed and the KIR2DS2 was then immunoprecipitated from the mixture using the GL183 antibody coupled to protein-G beads. The immune precipitate was analysed by Western blotting using a phosphotyrosine antibody. The membrane was then stripped and reprobed with an antibody to DAP12 the molecule that transduces a positive signal from KIR2DS2. Shown are the regions on the blots at the level of DAP12 (12-15 kDa). B. L721.174 cells were incubated with indicated peptides. The cells were then incubated with the NK cell line transfected with KIR2DS2 or transfected with KIR2DL2. The cells were lysed in 1% NP-40 and then analysed by Western blotting using antibodies to pVav1 and then following stripping of the membrane to Vav1. Shown are Western blots around the 98 kDa region, and below them the corresponding densitometries for 3 independent experiments.
# FIG. 7 1×10^6 L721.221-HLA-C*0304-ICP47 cells were incubated overnight at 26° C. with indicated peptides at a concentration of […]. The cells were then incubated with the NKL cell line transfected with KIR2DS2 or transfected with KIR2DL2 for 5 minutes. The cells were lysed in 1% NP-40 and then analysed by Western blotting using antibodies to pVav1 and then following stripping of the membrane to Vav1. Shown are Western blots around the 98 kDa region, and below them the corresponding densitometries for 2 independent experiments.
# FIG. 14—The Dengue virus peptide IVDLMCHATF (SEQ ID NO: 1) activates KIR2DS2 positive NK cells. 174 cells were incubated with the IVDLMCHATF (SEQ ID NO: 1) and then KIR2DS2-positive transfected NKL cells or KIR2DL2-positve transfected NKL cells. Activation of NK cells was assessed by western blotting for phosphorylated Vav1, and compared to total Vav1.
# With reference to FIG. 6A, 1×10^6 L721.174 cells were incubated overnight at 26° C. with indicated peptides at a concentration of […]. The cells were then incubated with the NK cell line transfected with KIR2DS2 for 5 minutes. The cells were lysed in 1% digitonin buffer and the KIR2DS2 was then immunoprecipitated from the mixture using the GL183 antibody coupled to protein-G beads. The immune precipitate was analysed by Western blotting using a phosphotyrosine antibody. […] The cells were lysed in 1% NP-40 and then analysed by Western blotting using antibodies to pVav1 and then following stripping of the membrane to Vav1. […]
# With reference to FIG. 7, 1×10^6 HLA-C*0304:ICP47:721.221 cells were incubated overnight at 26° C. with indicated peptides at a concentration of […]. […] The cells were lysed in 1% NP-40 and then analysed by Western blotting using antibodies to pVav1 and then following stripping of the membrane to Vav1. […]
Sequence,binding to HLA-Cw*0102 (mean fluorescence intensity of cell surface MHC Class I) (HLA-Cw*0102),activation of NK cells (phosphorylated Vav1 compared to total Vav1) [1]
IVDLMCHATF [Dengue virus peptide],bind HLA-Cw*0102,activated KIR2DS2
LNPSVAATL [peptide recognized by KIR2DS2-positive NK cells],binds HLA-Cw*0102,activates NK cells expressing KIR2DS2
